Measured values from patent US20130142788A1 (published 2013).

Experiments:
[1] = target: T1, recombinant mature dimeric myostatin (human and mouse (mature sequences 100% …, UniProt O08689 268-376)); experiment: ActRIIb neutralisation ELISA: inhibition of 2 nM biotinylated myostatin binding to coated ActRIIb
T1 construct: also called GDF-8; mature myostatin
T1 sequence: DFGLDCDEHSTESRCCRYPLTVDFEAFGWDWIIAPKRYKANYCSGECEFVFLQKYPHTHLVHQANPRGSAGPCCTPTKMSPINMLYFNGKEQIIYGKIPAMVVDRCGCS
Protocol: Recombinant soluble ActRIIb (R&D Systems 339-RBB) was coated in wells of an ELISA plate at 1 μg/ml in carbonate buffer overnight at 4° C. Plates were blocked with PBS containing 0.1% tween 20 and 0.1% BSA and washed following standard ELISA protocols. In parallel, 2 nM biotinylated myostatin (in-house reagent, described above) was pre-incubated with a dilution series of the antibodies of Tables 21 and 22 for 30 minutes at 37° C. The biotinylated myostatin:antibody reactions were then added (50 μl/well) to the ActRIIb coated plate for 1 hour at 37° C. Standard wash procedures were followed prior to addition of 50 μl per well of a 1:200 diluted streptavidin-HRP conjugate (R&D Systems. #890803) followed by a further 37° C. incubation for 1 hour. Plates were again washed and assayed at absorbance 490 nm following substrate (R&D Systems, #DY999) and acid stop solution treatment.

[2] = target: T1, recombinant mature dimeric myostatin; experiment: cell-based or functional assay

| Binder | IC50 [1] [nM] | IC50, myostatin responsive reporter gene neutralisation assay (A204) [2] [nM] |
| --- | --- | --- |
| H3L4 (antibody, IgG1, V domains shown, Humanised IgG1/kappa) VH: QVQLVQSGAEVKKPGASVKVSCKASGYSFTGYFMHWVRQAPGQGLEWIGNIYPYNGVSNYNQRFKARATLTTDTSTSTAYMELRSLRSDDTAVYYCARRYYYGTGPADWYYDVWGQGTLVTVSS VL: DIQMTQSPSSLSASVGDRVTITCKASQDINSYLSWFQQKPGKAPKSLIYRANRLVDGVPSKFSGSGSGQDYTLTISSLQPEDFATYYCLQSDEFPLTFGQGTKLEIKR | 1.31 |  |
| H9L6 (antibody, IgG1, V domains shown, Humanised IgG1/kappa) VH: QVQLVQSGAEVKKPGASVKISCKASGYSFTGYFMHWVRQAPGQGLEWIGNIYPYNSVSNYNQRFKAKATLTVDKSTSTAYMELRSLRSDDTAVYYCARRYYYGTGPADWYYDVWGQGTLVTVSS VL: DIQMTQSPSSLSASVGDRVTITCKASQDINSYLSWFQQKPGKAPKTLIYRANRLVDGVPSKFSGSGSGQDYTLTISSLQPEDFATYYCLQSDEFPLTFGQGTKLEIKR | 0.129 |  |
| H4L4 (antibody, IgG1, V domains shown, Humanised IgG1/kappa) VH: QVQLVQSGAEVKKPGASVKVSCKASGYSFTGYFMHWVRQAPGQGLEWMGNIYPYNGVSNYNQRFKARVTMTVDKSTSTAYMELRSLRSDDTAVYYCARRYYYGTGPADWYYDVWGQGTLVTVSS VL: DIQMTQSPSSLSASVGDRVTITCKASQDINSYLSWFQQKPGKAPKSLIYRANRLVDGVPSKFSGSGSGQDYTLTISSLQPEDFATYYCLQSDEFPLTFGQGTKLEIKR | 0.395 | 7.9 |
| H8L6 (antibody, IgG1, V domains shown, Humanised IgG1/kappa) VH: QVQLVQSGAEVKKPGASVKVSCKASGYSFTGYFMHWVRQAPGQGLEWIGNIYPYNSVSNYNQRFKARATLTVDKSTSTAYMELRSLRSDDTAVYYCARRYYYGTGPADWYYDVWGQGTLVTVSS VL: DIQMTQSPSSLSASVGDRVTITCKASQDINSYLSWFQQKPGKAPKTLIYRANRLVDGVPSKFSGSGSGQDYTLTISSLQPEDFATYYCLQSDEFPLTFGQGTKLEIKR | 0.101 |  |
| H6L6 (antibody, IgG1, V domains shown, Humanised IgG1/kappa) VH: QVQLVQSGAEVKKPGASVKISCKASGYSFTGYFMHWVRQAPGQGLEWIGNIYPYNGVSNYNQRFKAKATLTVDKSTSTAYMELRSLRSDDTAVYYCARRYYYGTGPADWYYDVWGQGTLVTVSS VL: DIQMTQSPSSLSASVGDRVTITCKASQDINSYLSWFQQKPGKAPKTLIYRANRLVDGVPSKFSGSGSGQDYTLTISSLQPEDFATYYCLQSDEFPLTFGQGTKLEIKR | 0.32 |  |
| H8L4 (antibody, IgG1, V domains shown, Humanised IgG1/kappa) VH: QVQLVQSGAEVKKPGASVKVSCKASGYSFTGYFMHWVRQAPGQGLEWIGNIYPYNSVSNYNQRFKARATLTVDKSTSTAYMELRSLRSDDTAVYYCARRYYYGTGPADWYYDVWGQGTLVTVSS VL: DIQMTQSPSSLSASVGDRVTITCKASQDINSYLSWFQQKPGKAPKSLIYRANRLVDGVPSKFSGSGSGQDYTLTISSLQPEDFATYYCLQSDEFPLTFGQGTKLEIKR | 0.079 |  |
| H3L6 (antibody, IgG1, V domains shown, Humanised IgG1/kappa) VH: QVQLVQSGAEVKKPGASVKVSCKASGYSFTGYFMHWVRQAPGQGLEWIGNIYPYNGVSNYNQRFKARATLTTDTSTSTAYMELRSLRSDDTAVYYCARRYYYGTGPADWYYDVWGQGTLVTVSS VL: DIQMTQSPSSLSASVGDRVTITCKASQDINSYLSWFQQKPGKAPKTLIYRANRLVDGVPSKFSGSGSGQDYTLTISSLQPEDFATYYCLQSDEFPLTFGQGTKLEIKR | 3.04 |  |
| H4L5 (antibody, IgG1, V domains shown, Humanised IgG1/kappa) VH: QVQLVQSGAEVKKPGASVKVSCKASGYSFTGYFMHWVRQAPGQGLEWMGNIYPYNGVSNYNQRFKARVTMTVDKSTSTAYMELRSLRSDDTAVYYCARRYYYGTGPADWYYDVWGQGTLVTVSS VL: DIQMTQSPSSLSASVGDRVTITCKASQDINSYLSWFQQKPGKAPKTLIYRANRLVDGVPSKFSGSGSGTDYTLTISSLQPEDFATYYCLQSDEFPLTFGQGTKLEIKR | 0.336 | 6.5 |
| H3L5 (antibody, IgG1, V domains shown, Humanised IgG1/kappa) VH: QVQLVQSGAEVKKPGASVKVSCKASGYSFTGYFMHWVRQAPGQGLEWIGNIYPYNGVSNYNQRFKARATLTTDTSTSTAYMELRSLRSDDTAVYYCARRYYYGTGPADWYYDVWGQGTLVTVSS VL: DIQMTQSPSSLSASVGDRVTITCKASQDINSYLSWFQQKPGKAPKTLIYRANRLVDGVPSKFSGSGSGTDYTLTISSLQPEDFATYYCLQSDEFPLTFGQGTKLEIKR | 1.08 |  |
| H6L5 (antibody, IgG1, V domains shown) VH: QVQLVQSGAEVKKPGASVKISCKASGYSFTGYFMHWVRQAPGQGLEWIGNIYPYNGVSNYNQRFKAKATLTVDKSTSTAYMELRSLRSDDTAVYYCARRYYYGTGPADWYYDVWGQGTLVTVSS VL: DIQMTQSPSSLSASVGDRVTITCKASQDINSYLSWFQQKPGKAPKTLIYRANRLVDGVPSKFSGSGSGTDYTLTISSLQPEDFATYYCLQSDEFPLTFGQGTKLEIKR |  | 6 |
| H5L6 (antibody, IgG1, V domains shown, Humanised IgG1/kappa) VH: QVQLVQSGAEVKKPGASVKVSCKASGYSFTGYFMHWVRQAPGQGLEWIGNIYPYNGVSNYNQRFKARATLTVDKSTSTAYMELRSLRSDDTAVYYCARRYYYGTGPADWYYDVWGQGTLVTVSS VL: DIQMTQSPSSLSASVGDRVTITCKASQDINSYLSWFQQKPGKAPKTLIYRANRLVDGVPSKFSGSGSGQDYTLTISSLQPEDFATYYCLQSDEFPLTFGQGTKLEIKR | 0.166 |  |
| H5L5 (antibody, IgG1, V domains shown, Humanised IgG1/kappa) VH: QVQLVQSGAEVKKPGASVKVSCKASGYSFTGYFMHWVRQAPGQGLEWIGNIYPYNGVSNYNQRFKARATLTVDKSTSTAYMELRSLRSDDTAVYYCARRYYYGTGPADWYYDVWGQGTLVTVSS VL: DIQMTQSPSSLSASVGDRVTITCKASQDINSYLSWFQQKPGKAPKTLIYRANRLVDGVPSKFSGSGSGTDYTLTISSLQPEDFATYYCLQSDEFPLTFGQGTKLEIKR | 0.149 | 6.1 |
| H6L4 (antibody, IgG1, V domains shown, Humanised IgG1/kappa) VH: QVQLVQSGAEVKKPGASVKISCKASGYSFTGYFMHWVRQAPGQGLEWIGNIYPYNGVSNYNQRFKAKATLTVDKSTSTAYMELRSLRSDDTAVYYCARRYYYGTGPADWYYDVWGQGTLVTVSS VL: DIQMTQSPSSLSASVGDRVTITCKASQDINSYLSWFQQKPGKAPKSLIYRANRLVDGVPSKFSGSGSGQDYTLTISSLQPEDFATYYCLQSDEFPLTFGQGTKLEIKR | 0.225 |  |
| H7L5 (antibody, IgG1, V domains shown, Humanised IgG1/kappa) VH: QVQLVQSGAEVKKPGASVKVSCKASGYSFTGYFMHWVRQAPGQGLEWMGNIYPYNSVSNYNQRFKARVTMTVDKSTSTAYMELRSLRSDDTAVYYCARRYYYGTGPADWYYDVWGQGTLVTVSS VL: DIQMTQSPSSLSASVGDRVTITCKASQDINSYLSWFQQKPGKAPKTLIYRANRLVDGVPSKFSGSGSGTDYTLTISSLQPEDFATYYCLQSDEFPLTFGQGTKLEIKR | 0.028 | 6.3 |
| H5L4 (antibody, IgG1, V domains shown, Humanised IgG1/kappa) VH: QVQLVQSGAEVKKPGASVKVSCKASGYSFTGYFMHWVRQAPGQGLEWIGNIYPYNGVSNYNQRFKARATLTVDKSTSTAYMELRSLRSDDTAVYYCARRYYYGTGPADWYYDVWGQGTLVTVSS VL: DIQMTQSPSSLSASVGDRVTITCKASQDINSYLSWFQQKPGKAPKSLIYRANRLVDGVPSKFSGSGSGQDYTLTISSLQPEDFATYYCLQSDEFPLTFGQGTKLEIKR | 0.211 |  |
| H9L4 (antibody, IgG1, V domains shown, Humanised IgG1/kappa) VH: QVQLVQSGAEVKKPGASVKISCKASGYSFTGYFMHWVRQAPGQGLEWIGNIYPYNSVSNYNQRFKAKATLTVDKSTSTAYMELRSLRSDDTAVYYCARRYYYGTGPADWYYDVWGQGTLVTVSS VL: DIQMTQSPSSLSASVGDRVTITCKASQDINSYLSWFQQKPGKAPKSLIYRANRLVDGVPSKFSGSGSGQDYTLTISSLQPEDFATYYCLQSDEFPLTFGQGTKLEIKR | 0.141 |  |
| H7L6 (antibody, IgG1, V domains shown, Humanised IgG1/kappa) VH: QVQLVQSGAEVKKPGASVKVSCKASGYSFTGYFMHWVRQAPGQGLEWMGNIYPYNSVSNYNQRFKARVTMTVDKSTSTAYMELRSLRSDDTAVYYCARRYYYGTGPADWYYDVWGQGTLVTVSS VL: DIQMTQSPSSLSASVGDRVTITCKASQDINSYLSWFQQKPGKAPKTLIYRANRLVDGVPSKFSGSGSGQDYTLTISSLQPEDFATYYCLQSDEFPLTFGQGTKLEIKR | 0.031 |  |
| H4L6 (antibody, IgG1, V domains shown, Humanised IgG1/kappa) VH: QVQLVQSGAEVKKPGASVKVSCKASGYSFTGYFMHWVRQAPGQGLEWMGNIYPYNGVSNYNQRFKARVTMTVDKSTSTAYMELRSLRSDDTAVYYCARRYYYGTGPADWYYDVWGQGTLVTVSS VL: DIQMTQSPSSLSASVGDRVTITCKASQDINSYLSWFQQKPGKAPKTLIYRANRLVDGVPSKFSGSGSGQDYTLTISSLQPEDFATYYCLQSDEFPLTFGQGTKLEIKR | 0.273 | 6.9 |
| H7L4 (antibody, IgG1, V domains shown, Humanised IgG1/kappa) VH: QVQLVQSGAEVKKPGASVKVSCKASGYSFTGYFMHWVRQAPGQGLEWMGNIYPYNSVSNYNQRFKARVTMTVDKSTSTAYMELRSLRSDDTAVYYCARRYYYGTGPADWYYDVWGQGTLVTVSS VL: DIQMTQSPSSLSASVGDRVTITCKASQDINSYLSWFQQKPGKAPKSLIYRANRLVDGVPSKFSGSGSGQDYTLTISSLQPEDFATYYCLQSDEFPLTFGQGTKLEIKR | 0.038 |  |
